Where no end group is shown, it is not given here.

The target of assay [1] is anti-A044 antibody (Fibronectin PET). Nature of the assay: peptide competition assay in 6% BSA.
Assay [2] has as its target anti-A025 antibody (IL-1beta PET). The assay can be described thus: peptide competition assay in 6% BSA.
Assay [3] addresses anti-A007 antibody (ERK2 PET). Nature of the assay: peptide competition assay in 6% BSA.
The target in assay [4] is anti-A035 antibody (C4 PET). The assay can be described thus: peptide competition assay in 6% BSA.
Assay [5] concerns the target anti-A005 antibody (ERK1 PET). The assay can be described thus: peptide competition assay in 6% BSA.
For assay [6], the target named is anti-A034 antibody (C4 PET). Nature of the assay: peptide competition assay in 6% BSA.
In assay [7] the target is anti-A009 antibody (pERK2 PET). Nature of the assay: peptide competition assay in 6% BSA.
Assay [8] has as its target anti-A016 antibody (Thyroglobulin PET). Nature of the assay: peptide competition assay in 6% BSA.
For assay [9], the target named is anti-A017 antibody (Troponin I PET). The assay can be described thus: peptide competition assay in 6% BSA.
For assay [10], the target named is anti-A043 antibody (CRP PET). Nature of the assay: peptide competition assay in 6% BSA.
In assay [11] the target is anti-A015 antibody (Thyroglobulin PET). The assay can be described thus: peptide competition assay in 6% BSA.
Assay [12] deals with anti-A004 antibody (ERK1 PET). Nature of the assay: peptide competition assay in 6% BSA.
In assay [13] the target is anti-A024 antibody (IL-1beta PET). Nature of the assay: peptide competition assay in 6% BSA.
For assay [14], the target named is anti-A013 antibody (Thyroglobulin PET). Nature of the assay: peptide competition assay in 6% BSA.
Assay [15] has as its target anti-A028 antibody (IL-1beta PET). Nature of the assay: peptide competition assay in 6% BSA.
The target of assay [16] is anti-A008 antibody (ERK2 PET). The assay can be described thus: peptide competition assay in 6% BSA.
Assay [17] addresses anti-A049 antibody (FactorXII PET). Nature of the assay: peptide competition assay in 6% BSA.
For assay [18], the target named is anti-A023 antibody (PSA PET). The assay can be described thus: peptide competition assay in 6% BSA.
Assay [19] has as its target anti-A047 antibody (Fibronectin PET). Nature of the assay: peptide competition assay in 6% BSA.
The target of assay [20] is anti-A003 antibody (TGFbeta1 PET). Nature of the assay: peptide competition assay in 6% BSA.
Assay [21] concerns the target anti-A031 antibody (C3 PET). Nature of the assay: peptide competition assay in 6% BSA.
The target of assay [22] is anti-A021 antibody (PSA PET). Nature of the assay: peptide competition assay in 6% BSA.
The target of assay [23] is anti-A014 antibody (Thyroglobulin PET). Nature of the assay: peptide competition assay in 6% BSA.
Assay [24] deals with anti-A027 antibody (IL-1beta PET). The assay can be described thus: peptide competition assay in 6% BSA.
Assay [25] addresses anti-A039 antibody (C9 PET). Nature of the assay: peptide competition assay in 6% BSA.
Assay [26] has as its target anti-A037 antibody (C9 PET). The assay can be described thus: peptide competition assay in 6% BSA.
Assay [27] addresses antibody C1. The assay can be described thus: peptide competition ELISA: soluble peptide against immobilized target peptide for antibody C1. In general terms: An ELISA detects its analyte on a solid surface through an enzyme-linked reagent.
Assay [28] concerns the target anti-A011 antibody (MEK1 PET). Nature of the assay: peptide competition assay in 6% BSA.
Assay [29] has as its target anti-A046 antibody (Fibronectin PET). The assay can be described thus: peptide competition assay in 6% BSA.
In assay [30] the target is anti-A006 antibody (pERK1 PET). Nature of the assay: peptide competition assay in 6% BSA.
Assay [31] has as its target anti-A020 antibody (Troponin I PET). Nature of the assay: peptide competition assay in 6% BSA.
Assay [32] concerns the target anti-A012 antibody (Thyroglobulin PET). Nature of the assay: peptide competition assay in 6% BSA.
The target in assay [33] is anti-A022 antibody (PSA PET). The assay can be described thus: peptide competition assay in 6% BSA.
For assay [34], the target named is anti-A045 antibody (Fibronectin PET). The assay can be described thus: peptide competition assay in 6% BSA.
Assay [35] addresses anti-A001 antibody (TGFbeta1 PET). Nature of the assay: peptide competition assay in 6% BSA.
Assay [36] has as its target anti-A002 antibody (TGFbeta1 PET). The assay can be described thus: peptide competition assay in 6% BSA.
Assay [37] concerns the target anti-A010 antibody (MEK1 PET). Nature of the assay: peptide competition assay in 6% BSA.
Assay [38] has as its target anti-A026 antibody (IL-1beta PET). The assay can be described thus: peptide competition assay in 6% BSA.

The molecule CHEGGQSYK-NH2 [A044 peptide (Fibronectin), …-NH2] registered an IC50 in assay [1] of 8 nM.

Regarding Ac-SLVMSGPYELKC [A025 peptide (IL-1beta), Ac-…], the IC50 in assay [2] was determined as 5 nM.

Ac-IEVEQALAHPYLEQC [A007 peptide (ERK2), Ac-…] came in with an IC50 in [3] of 4 nM.

On to CEANEDYEDYEYDE-NH2 [A035 peptide (C4), …-NH2], for which the IC50 in [4] was found to be 4 nM.

With CVAEEPFTFDMELDD-NH2 [A005 peptide (ERK1), …-NH2], in [5], the IC50 was 6 nM.

Molecule CQTDQPIYNPGQR-NH2 [A034 peptide (C4), …-NH2] showed a concentration for half-maximal inhibition (IC50) in [6] of 4 nM.

Regarding Ac-VADPDHDHTGC [A009 peptide (ERK2), Ac-…], the half-inhibitory concentration (IC50) in [7] turned out to be 31 nM.

On to CDEAGQELEGMR-NH2 [A016 peptide (Thyroglobulin), …-NH2], for which, in assay [8], the IC50 was found to be 4 nM.

Ac-AYATEPHAKC [A017 peptide (Troponin I), Ac-…] came in with an IC50 in [9] of 10 nM.

In assay [10], CYEVQGEVFTK-NH2 [A043 peptide (CRP), …-NH2] had an IC50 of 4 nM.

CDFSTPLAHFDLR-NH2 [A015 peptide (Thyroglobulin), …-NH2] came in with an IC50 in assay [11] of 4 nM.

The molecule Ac-ITVEEALAHPYLEQC [A004 peptide (ERK1), Ac-…] gave an IC50 in assay [12] of 25 nM.

CNEDDLFFEADGPK-NH2 [A024 peptide (IL-1beta), …-NH2] registered an IC50 in assay [13] of 0.5 nM.

The molecule Ac-ELAETGLELLC [A013 peptide (Thyroglobulin), Ac-…] had an IC50 in [14] of 8 nM. This lies in the single-digit nanomolar range.

In assay [15], CENMPVFLGGTK-NH2 [A028 peptide (IL-1beta), …-NH2] gave an IC50 of 0.5 nM.

As for CDPSDEPIAEAPFK-NH2 [A008 peptide (ERK2), …-NH2], the concentration for half-maximal inhibition (IC50) in assay [16] stood at 6 nM.

In assay [17], CVAGWGHQFEGAEEY-NH2 [A049 peptide (FactorXII), …-NH2] displayed a 50% inhibitory concentration (IC50) of 15 nM.

As to CGSIEPEEFLTPK-NH2 [A023 peptide (PSA), …-NH2], the half-maximal inhibitory concentration (IC50) in [18] is 8 nM.

For the molecule Ac-VDVIPVNLPGEHGQRC [A047 peptide (Fibronectin), Ac-…], in assay [19], the IC50 was determined as 10 nM. This lies in the double-digit nanomolar range.

As for CYIWSLDTQYSK-NH2 [A003 peptide (TGFbeta1), …-NH2], the IC50 in [20] came out at 8 nM.

Molecule CHYLDETEQWEK-NH2 [A031 peptide (C3), …-NH2] showed an IC50 in assay [21] of 5 nM.

On to Ac-LSEPAELTDAVKC [A021 peptide (PSA), Ac-…], for which the concentration for half-maximal inhibition (IC50) in assay [22] came out at 8 nM.

On to CEIYDTIFAGLD-NH2 [A014 peptide (Thyroglobulin), …-NH2], for which, in [23], the IC50 turned out to be 5 nM.

In the case of CLEFESAQFPNWY-NH2 [A027 peptide (IL-1beta), …-NH2], the IC50 in assay [24] was determined as 5 nM. That is a single-digit nanomolar value.

In [25], Ac-PWNVASLIYETKC [A039 peptide (C9), Ac-…] had an IC50 of 0.4 nM.

In assay [26], CTEHYEEQIEAFK-NH2 [A037 peptide (C9), …-NH2] had an IC50 of 0.5 nM.

Regarding YEVQGEVF [CRP-derived 8-mer PET YEVQGEVF], the IC50 in assay [27] stood at 1000 nM.

The molecule CGTSSAETNLEALQK-NH2 [A011 peptide (MEK1), …-NH2] gave an IC50 in [28] of 23 nM.

Molecule CTTQNYDADQK-NH2 [A046 peptide (Fibronectin), …-NH2] returned an IC50 in assay [29] of 20 nM.

For Ac-IADPEHDHTGC [A006 peptide (ERK1), Ac-…], the IC50 in assay [30] stood at 6 nM.

In turn, Ac-NIDALSGMEGRC [A020 peptide (Troponin I), Ac-…] returned a concentration for half-maximal inhibition (IC50) in [31] of 4 nM.

In assay [32], Ac-GGQSAESEEEELC [A012 peptide (Thyroglobulin), Ac-…] gave an IC50 of 10 nM. That is a double-digit nanomolar value.

In the case of CDLPTQEPALG-NH2 [A022 peptide (PSA), …-NH2], the IC50 in assay [33] worked out at 8 nM.

In assay [34], CTFYQIGDSWEK-NH2 [A045 peptide (Fibronectin), …-NH2] came in with an IC50 of 1 nM.

In [35], Ac-ALYNQHNPGASAAPC [A001 peptide (TGFbeta1), Ac-…] had a 50% inhibitory concentration (IC50) of 0.8 nM.

Take Ac-PQALEPLPIVYYVGRC [A002 peptide (TGFbeta1), Ac-…]: in [36], the IC50 worked out at 3 nM.

As for Ac-PTPIQLNPAPDGC [A010 peptide (MEK1), Ac-…], the IC50 in [37] was 36 nM.

Molecule Ac-PTLQLESVDPKC [A026 peptide (IL-1beta), Ac-…] yielded an IC50 in [38] of 8 nM. That is a single-digit nanomolar value.

The term IC50 denotes the concentration at which inhibition is half-maximal.

For the origin of these results see patent publication US20060014212A1.
